Measurements from US20240116985A1 (published 2024).
Starred links: 1 amine or outer side, 2 acyl side, 3 side chain; linkers in the order of their positions; H or OH if unused. Positions of bridges follow the written chain, without caps; N, C: chain ends. Non-standard residues stand in square brackets, D forms with d. Primed or numbered codes have the meaning given here. B5(24) = 2-amino-2-(pent-4-en-1-yl)hept-6-enoic acid, 2,2-bis(4-pentenyl)glycine (stitching residue), C=CCCCC(CCCC=C)(N[*:1])C(=O)[*:2]; B5(4) = 2,2-bis(4-pentenyl)glycine = 2-amino-2-(pent-4-en-1-yl)hept-6-enoic acid (stitching residue), C=CCCCC(CCCC=C)(N[*:1])C(=O)[*:2]; PyrS2 = (S)-3-amino-1-((pent-4-en-1-yloxy)carbonyl)pyrrolidine-3-carboxylic acid, C=CCCCOC(=O)N1CC[C@@](N[*:1])(C(=O)[*:2])C1; Phe(2-OMe) = COc1ccccc1C[C@H](N)C(=O)O; Bta = N[C@@H](Cc1csc2ccccc12)C(=O)O; αAllylPro = C=CC[C@@]1(C(=O)O)CCCN1; tBuAla = CC(C)(C)C[C@H](N)C(=O)O; 3Thi = N[C@@H](Cc1ccsc1)C(=O)O; S8 = C=CCCCCCC[C@](C)(N)C(=O)O; Thr(ol) = C[C@@H](O)[C@H](N)CO

Key:
[1] = target: T1, B-cat-Halo (UniProt P35222 1-781); assay: cell-based or functional assay
T1 sequence (looked up): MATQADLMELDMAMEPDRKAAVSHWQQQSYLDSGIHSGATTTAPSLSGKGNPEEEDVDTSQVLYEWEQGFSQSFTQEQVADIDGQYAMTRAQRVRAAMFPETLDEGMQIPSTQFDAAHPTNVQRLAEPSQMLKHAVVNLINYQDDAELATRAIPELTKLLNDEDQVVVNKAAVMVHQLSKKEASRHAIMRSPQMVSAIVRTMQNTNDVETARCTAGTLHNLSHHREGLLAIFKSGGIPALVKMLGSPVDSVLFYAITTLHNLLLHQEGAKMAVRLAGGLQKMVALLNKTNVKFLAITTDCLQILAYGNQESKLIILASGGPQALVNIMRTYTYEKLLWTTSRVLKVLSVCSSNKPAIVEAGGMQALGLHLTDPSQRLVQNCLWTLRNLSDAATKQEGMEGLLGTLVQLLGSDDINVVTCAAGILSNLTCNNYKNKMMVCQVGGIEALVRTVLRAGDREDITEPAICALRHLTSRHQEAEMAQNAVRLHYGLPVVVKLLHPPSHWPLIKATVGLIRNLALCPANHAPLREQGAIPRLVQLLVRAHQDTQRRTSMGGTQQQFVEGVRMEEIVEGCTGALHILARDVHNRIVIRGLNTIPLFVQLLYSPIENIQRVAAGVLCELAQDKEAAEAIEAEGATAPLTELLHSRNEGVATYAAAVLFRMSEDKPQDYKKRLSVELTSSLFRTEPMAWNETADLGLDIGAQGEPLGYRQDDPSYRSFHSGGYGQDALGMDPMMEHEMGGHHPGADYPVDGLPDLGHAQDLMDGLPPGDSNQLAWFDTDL

[2] = target: T2, beta-catenin (in DLD1 TCF/LEF luciferase reporter cells) (UniProt P35222 1-781); assay: cell-based or functional assay
T2 sequence (looked up): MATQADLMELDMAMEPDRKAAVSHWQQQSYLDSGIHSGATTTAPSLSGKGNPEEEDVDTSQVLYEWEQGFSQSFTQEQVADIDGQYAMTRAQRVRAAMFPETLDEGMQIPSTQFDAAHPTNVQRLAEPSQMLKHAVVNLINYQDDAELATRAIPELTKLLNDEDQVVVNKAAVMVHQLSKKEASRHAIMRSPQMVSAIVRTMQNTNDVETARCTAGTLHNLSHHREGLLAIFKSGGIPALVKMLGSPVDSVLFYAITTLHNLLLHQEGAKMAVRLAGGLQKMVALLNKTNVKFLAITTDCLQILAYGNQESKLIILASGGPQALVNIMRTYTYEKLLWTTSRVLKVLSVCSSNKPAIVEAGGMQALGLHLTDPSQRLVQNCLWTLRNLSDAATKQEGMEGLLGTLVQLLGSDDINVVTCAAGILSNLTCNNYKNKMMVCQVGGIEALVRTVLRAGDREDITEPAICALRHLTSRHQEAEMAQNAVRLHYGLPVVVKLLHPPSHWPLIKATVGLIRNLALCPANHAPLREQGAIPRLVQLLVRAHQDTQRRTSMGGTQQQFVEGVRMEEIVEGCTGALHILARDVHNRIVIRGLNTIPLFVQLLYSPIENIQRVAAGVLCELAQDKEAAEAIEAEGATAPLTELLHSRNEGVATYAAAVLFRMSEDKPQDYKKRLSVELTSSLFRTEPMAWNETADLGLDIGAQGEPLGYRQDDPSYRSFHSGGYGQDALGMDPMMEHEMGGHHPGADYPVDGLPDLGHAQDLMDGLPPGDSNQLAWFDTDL

[3] = target: T3, full-length beta-Catenin (Uniprot ID P35222) (Homo sapiens (Human), UniProt P35222 1-781); assay: fluorescence polarization competition; peptide titrated against 10 nM full-length beta-catenin + 10 nM 5FAM-TCF4(10-53) probe
T3 construct: The assay text says 'full-length'; also called bCat; B-Catenin
T3 sequence: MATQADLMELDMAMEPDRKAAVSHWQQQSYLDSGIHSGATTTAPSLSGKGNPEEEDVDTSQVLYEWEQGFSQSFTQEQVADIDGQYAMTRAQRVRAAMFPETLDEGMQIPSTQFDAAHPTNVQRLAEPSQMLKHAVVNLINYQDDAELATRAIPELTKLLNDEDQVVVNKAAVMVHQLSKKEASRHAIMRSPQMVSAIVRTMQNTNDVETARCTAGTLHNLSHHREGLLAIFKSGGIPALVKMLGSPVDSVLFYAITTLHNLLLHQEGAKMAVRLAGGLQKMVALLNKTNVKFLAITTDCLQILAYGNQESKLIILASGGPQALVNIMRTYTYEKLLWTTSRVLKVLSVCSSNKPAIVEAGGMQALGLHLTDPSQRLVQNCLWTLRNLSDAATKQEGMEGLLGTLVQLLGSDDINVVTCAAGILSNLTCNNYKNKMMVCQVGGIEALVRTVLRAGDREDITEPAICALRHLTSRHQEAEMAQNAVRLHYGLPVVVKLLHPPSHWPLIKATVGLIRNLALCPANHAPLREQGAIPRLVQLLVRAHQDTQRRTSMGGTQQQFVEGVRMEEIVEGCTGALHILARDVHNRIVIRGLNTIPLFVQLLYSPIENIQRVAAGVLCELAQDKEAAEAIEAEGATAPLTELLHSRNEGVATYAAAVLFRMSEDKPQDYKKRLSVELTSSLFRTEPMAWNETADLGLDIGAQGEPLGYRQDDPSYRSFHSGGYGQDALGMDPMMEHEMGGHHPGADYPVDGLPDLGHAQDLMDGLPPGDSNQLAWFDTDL
In short: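 Plate incubated 60 minutes at 20° C. protected from light before reading. Concentrations given are final.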

[4] = target: T4, B-cat-Halo (UniProt P35222 1-781); assay: cell-based or functional assay; remark: listed apart in the source
T4 sequence (looked up): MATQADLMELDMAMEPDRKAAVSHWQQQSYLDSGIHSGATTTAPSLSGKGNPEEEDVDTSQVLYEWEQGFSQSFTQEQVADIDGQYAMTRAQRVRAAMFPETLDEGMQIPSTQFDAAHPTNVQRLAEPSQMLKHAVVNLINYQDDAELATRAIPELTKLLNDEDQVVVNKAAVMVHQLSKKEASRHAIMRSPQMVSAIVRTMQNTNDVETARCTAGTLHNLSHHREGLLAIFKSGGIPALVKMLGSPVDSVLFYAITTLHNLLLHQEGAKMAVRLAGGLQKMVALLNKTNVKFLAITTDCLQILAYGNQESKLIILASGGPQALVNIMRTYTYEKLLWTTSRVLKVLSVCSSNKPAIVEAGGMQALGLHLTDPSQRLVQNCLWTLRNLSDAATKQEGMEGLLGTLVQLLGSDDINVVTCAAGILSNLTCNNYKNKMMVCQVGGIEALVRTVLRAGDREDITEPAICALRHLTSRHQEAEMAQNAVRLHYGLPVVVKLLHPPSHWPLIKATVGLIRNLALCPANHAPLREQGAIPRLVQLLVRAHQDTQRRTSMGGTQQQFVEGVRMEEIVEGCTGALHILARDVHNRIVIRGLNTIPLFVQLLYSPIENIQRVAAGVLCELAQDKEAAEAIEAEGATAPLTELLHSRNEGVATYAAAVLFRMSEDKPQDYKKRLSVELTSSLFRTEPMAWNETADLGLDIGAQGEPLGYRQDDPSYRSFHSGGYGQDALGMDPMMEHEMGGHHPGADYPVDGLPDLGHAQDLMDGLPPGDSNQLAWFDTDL

| Binder | NanoBRET Abs IC50 (uM); B-cat-Halo / TCF4-Luc in HEK293 cells [1] [µM] | DLD1 4% Abs IC50 (uM); TCF/LEF luciferase reporter in DLD1 cells [2] [µM] | IC50 [3] [µM] | NanoBRET Abs IC50 [4] [µM] |
| --- | --- | --- | --- | --- |
| Ac-[αAllylPro]D[tBuAla][B5(4)]DDAAFL[PyrS2][3Thi][Bta][Thr(ol)] (staple 1-4, 4-11) [I-1302] | 21.4 | 4 |  |  |
| Ac-[αAllylPro]DA[B5(24)]DEAAFN[S8][Phe(2-OMe)][Bta]Q-NH2 (staple 1-4, 4-11, Stapled peptide composition) [I-437] |  |  | 0.026 | 17.5 |
